Measurements taken from patent US20050028229A1 (published 2005).

What was measured:
[1] = molecular target: T1, purified human α-hemoglobin (human, UniProt P69905 2-142, heme-bound; carboxy (CO) form in interaction studies, oxy form in stability studies); assay: gel filtration at various concentrations of AHSP and α-hemoglobin (data not shown)
T1 construct: Holo-protein with heme; also called CO-α-hemoglobin; carboxy (CO)-α-hemoglobin

[2] = molecular target: T2, purified human β-hemoglobin (human, UniProt P68871 2-147, heme-bound; carboxy (CO) form in interaction studies, oxy form in stability studies); assay: gel-filtration chromatography of equimolar mixtures
T2 construct: also called CO-β-hemoglobin; oxy-β-hemoglobin
Description: Duplicate strips were stained with benzidine to identify heme-containing proteins, and/or with Ponceau S to stain all proteins.

[3] = molecular target: T1, purified human α-hemoglobin; assay: method not stated; told as 'discussed previously'

T1 sequence (P69905 2-142 limits assumed): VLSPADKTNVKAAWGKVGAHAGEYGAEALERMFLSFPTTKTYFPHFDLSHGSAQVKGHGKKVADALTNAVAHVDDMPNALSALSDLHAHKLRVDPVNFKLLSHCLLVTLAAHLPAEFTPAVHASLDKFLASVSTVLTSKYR
T2 sequence (P68871 2-147 limits assumed): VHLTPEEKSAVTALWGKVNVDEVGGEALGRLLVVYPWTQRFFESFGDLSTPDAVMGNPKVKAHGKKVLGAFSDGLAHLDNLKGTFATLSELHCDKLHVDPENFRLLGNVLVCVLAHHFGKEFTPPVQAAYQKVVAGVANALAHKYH

Kd [1]: ≤ 500 nM
binding result [2]: no binding
Kd [3]: ~100 nM
B1: recombinant human AHSP (Alpha Hemoglobin Stabilizing Protein) (other, UniProt Q9NZD4 1-102, looked up)
chain: MALLKANKDLISAGLKEFSVLLNQQVFNDPLVSEEDMVTVVEDWMNFYINYYRQQVTGEPQERDKALQELRQELNTLANPFLAKYRDFLKSHELPSHPPPSS
notes: species not restated there; also called EDRF; Erythroid Differentiation Related Factor
